The nanobody polyreactivity screen of Harvey et al. (2022)

Assay: yeast display, Sf9 membrane polyspecificity reagent, FACS + sequencing; frameworks hold sequencing errors
Outline: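 Nanobodies from a synthetic yeast display library (Saccharomyces cerevisiae BJ5465), induced 36–48 hours with galactose, were stained 1 hour at 4 °C with 10% biotinylated, detergent-solubilized Sf9 membrane reagent, enriched on streptavidin microbeads, then FACS-sorted. Anti-HA (expression) and streptavidin (reagent binding) fluorescence set low and high (top ~1%) gates. Polyreactivity labels come from the gate of origin. Genes were colony-PCR amplified, MiSeq 2 × 250 sequenced and filtered by CDR length.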
In the case of “QDQLVESGGGLVQAGGSLRLSCAASGRIIRQYAMGWYRQAPGKERELVAVISAGGARTYYADSVKGRFTISRDNAKNTVYLQMNSLKPEDTAVYYCAVSYPPGAYRRHFRYGYWGQGTQVTVSS”, the “polyreactivity (PSR sort gate)” value is reported as “high polyreactivity”. In the case of “QDQLVESGGGLVQAGGSLRLSCAASGRILAYYAMGWSRQAPGKERELVAAISRAGSTNYADSVKGRFTISRDNAKNTVYLQMNSLKPEDTAVYYCAARPYRRGYNYWGQGTQVTVSS”, the “polyreactivity (PSR sort gate)” value is reported as “high polyreactivity”. For “QDQLVESGGGLVQAGGSLRLSCAASGRILLDNAMGWYRQAPGKERELVAAISSGGRTYYADSVKGRFTISRDNAKNTVYLQLNSLKPEDTAVYYCAVSGGFYWGQGTQVTVSS”, the “polyreactivity (PSR sort gate)” value was “high polyreactivity”. In the case of “QDQLVESGGGLVQAGGSLRLSCAASGRILTKYAMGWYRQAPGKERELVAAISDSGTGTYYADSVKGRFTISRDNAKNTVYLQMNSLKPEDTAVYYCNAQTRRTRTYHGHKYGYWGQGTQVTVSS”, the “polyreactivity (PSR sort gate)” value is reported as “high polyreactivity”. In the case of “QDQLVESGGGLVQAGGSLRLSCAASGRISPRYAMGWYRQAPGKERELVAAIDTSDGTTYFADSVKGRFTISRDNAKNTVYLQMNSLKPEDTAVYYCAAEGQLFDLYDYWGQGTQGTVSS”, the “polyreactivity (PSR sort gate)” value is reported as “low polyreactivity”. For “QDQLVESGGGLVQAGGSLRLSCAASGRNIGGYAMGWNRLAPGKEWELVAAISRSGGSTYYADSVKGRFTISRDNAKNTVYLQMNSLKPEDTAVYYCAAETVSSFYTLWTGKYDYWGQGTQVTVSS”, the “polyreactivity (PSR sort gate)” value was “high polyreactivity”. With “QDQLVESGGGLVQAGGSLRLSCAASGRTFAYNAMGWYRQAPGKERELVADITSGGSTYYADSVKGRFTIARDNAKNKVYLQMNSLKPEDTAVYYCAAYTQFWYWDYNYWGQGTQVTVSS” the “polyreactivity (PSR sort gate)” value was “high polyreactivity”. For “QDQLVESGGGLVQAGGSLRLSCAASGRTFHKYAMGWSRQAPGKEMELVAAITGSGVRTYYADSVKGRFTISRDNAKNTVYLQMNSLKPEDTAVYYGNADSYNRNGDYWGQGTQVTVSS”, the “polyreactivity (PSR sort gate)” value was “high polyreactivity”. In the case of “QDQLVESGGGLVQAGGSLRLSCAASGRTFNGYAMGWYRQAPGKDRELVARITYRGGGTYYADSVKGRFTISRDNAKNTVYLQMNILKTEDTAVYYCNARGVQYRYYYWGQGTQVTVSS”, the “polyreactivity (PSR sort gate)” value is reported as “high polyreactivity”. In the case of “QDQLVESGGGLVQAGGSLRLSCAASGRTFRRYALGWYRQAPGKETELVAVISGGGTYYADSVKGRFTISRDNAKNTVYLQMNSLKPEDTAVYYCAARYRQTRSPSYDYWGQGTQVTVSS”, the “polyreactivity (PSR sort gate)” value is reported as “high polyreactivity”. With “QDQLVESGGGLVQAGGSLRLSCAASGRTFRRYTKGWYRQAPGKERELVAAISRGGSTNYADSVKGRFTISRDNAMNTFYLQMNSLKPEDTAVYYCNADYWYDWNSYDYWGQGTQVTVSS” the “polyreactivity (PSR sort gate)” value was “high polyreactivity”. In the case of “QDQLVESGGGLVQAGGSLRLSCAASGRTFTRYTMGRYRPAPVKERELVAAISSGGSTTYADSVKGRFTISRDNAKNTVYLQMNSLKPEDTAVYYCAAGLVYRGYRRDYWGQGTQVTVSS”, the “polyreactivity (PSR sort gate)” value is reported as “low polyreactivity”. For “QDQLVESGGGLVQAGGSLRLSCAASGRTFTYYTMGWYRQAPGKERELVAAITWSGGRTYYADSVKGRFTISRDYAKNTVYLQMNSLKPEDTAVYYCAKPPQGTYDYWGQGTQVNVSS”, the “polyreactivity (PSR sort gate)” value was “low polyreactivity”. With “QDQLVESGGGLVQAGGSLRLSCAASGRTFVSYAMGWYRQAPGKERELVAGISWSGDSTYYADSEKGRFTISRDNAKNTVYLQMNSLKPEDTAVYYCAAVQRTDRSAHYSWGQGTQVTLSS” the “polyreactivity (PSR sort gate)” value was “low polyreactivity”. With “QDQLVESGGGLVQAGGSLRLSCAASGRTFVTYAMGWYRQAPGKEREFVAAITWSTGTSTYYADSVKGRFTISRDNAKNTVYLQMNSLKPEDTAGYYCAAYYVVHFGYWGQGTQVTVSS” the “polyreactivity (PSR sort gate)” value was “low polyreactivity”. In the case of “QDQLVESGGGLVQAGGSLRLSCAASGRTFYANAMGWNRQAPGKERELVAAISSSDDITYYADSVKGRFTNSRDNAKNTVYLQINSMKPEDTAVYYCAAEEYIVTYSGFWQEYEYWGQGTQVTVSS”, the “polyreactivity (PSR sort gate)” value is reported as “high polyreactivity”. With “QDQLVESGGGLVQAGGSLRLSCAASGRTFYCYAMGGYRQAPGKDRELVAAISSGDITSYADSVKGRFTISRDNAKNTVYLQMNSVKPEDTAVYYCAAEVVAWSLYEDFKTYDYWGQGTQVTVSS” the “polyreactivity (PSR sort gate)” value was “low polyreactivity”. For “QDQLVESGGGLVQAGGSLRLSCAASGRTFYRYTMGWYRQAPGKESELVAGISWRGGTTYYADSVKGRFTISRDNAKNTVYLQMNSLKPEDTAVYYCAAKAGYRYGSLAYYKYDYWGQGTQVTVSS”, the “polyreactivity (PSR sort gate)” value was “high polyreactivity”. For “QDQLVESGGGLVQAGGSLRLSCAASGRTLWRNTMGWYRQAPGKERELVAAITTRGGSTYYADSVKGRFTISRDNAKNTVYLQLNSLKPEDTAVYYCAARTYTGEGSGRFYYWGQGTQVTVSS”, the “polyreactivity (PSR sort gate)” value was “high polyreactivity”. With “QDQLVESGGGLVQAGGSLRLSCAASGRTSIWNAMGWYRQAPGKERELVASISWSGGSTYYADSVKGRFTISRDNAKNTVYLQMNSLKPEDTAVYYCAKTAYFLVFNEHLHKKRYDSWGQGTQVTVSS” the “polyreactivity (PSR sort gate)” value was “low polyreactivity”. With “QDQLVESGGGLVQAGGSLRLSCAASGSIFAGYAMGWYRQAPGKESELVAAITSGGRTYYADSVKGRFTISRDNAKNTVYLQMNSLKPEDTAVYYCAKRWYTKTGYDYWGQGTQVTVSS” the “polyreactivity (PSR sort gate)” value was “high polyreactivity”. For “QDQLVESGGGLVQAGGSLRLSCAASGSIFAWNAMGWYRQAPGKERELVAVITSGGSTNYADSVKGRFTISRDNAKNTVYLQMNSLKPEDTAVYYCAARSWVYSVIGDYWGQVTQVTVSS”, the “polyreactivity (PSR sort gate)” value was “low polyreactivity”. With “QDQLVESGGGLVQAGGSLRLSCAASGSIFFTNDMGWYRQAHGKEREFVAAITGGGGSTYYADSVKGRFTISRDNAKNTVYLQMNSLKPEDTAVYYCATKAKPRSGYNYWGQGTQVTVSS” the “polyreactivity (PSR sort gate)” value was “low polyreactivity”. In the case of “QDQLVESGGGLVQAGGSLRLSCAASGSIFGGYGMGWYRQAPGKERELVAAITSGSSTYYADSVKGRFTISRDNAKNTVYLQMNSLKPEDTAVYYCAARPYPHSAYQGDYWGRGTQVTVSS”, the “polyreactivity (PSR sort gate)” value is reported as “low polyreactivity”. In the case of “QDQLVESGGGLVQAGGSLRLSCAASGSIFGSYAMGWYRQAPGKEMELVAAISYSGASTYYADSVKGRFTISRDNAKNTVYLQMNSLKPEDTAVYYCNKDPRWRRFNYWGQGTQVTVSS”, the “polyreactivity (PSR sort gate)” value is reported as “high polyreactivity”. For “QDQLVESGGGLVQAGGSLRLSCAASGSIFHGYGRGWYRQAPGKERELVASITWIGGDTYYADSVKGRFTISRDNPKNTVYLQMNSLKPEDTAVYYCNAEWVVTYIYDYWGQGTQVTVSS”, the “polyreactivity (PSR sort gate)” value was “low polyreactivity”. In the case of “QDQLVESGGGLVQAGGSLRLSCAASGSIFIQYAMGWYRQAPGKERQFVAAITSGGGSTYYADSVKGRFTISRDNAMNTVYLQLNSLKPEDTAVYYCAVDRTRRPALPFVTLDRGYWGQGTQVTVSS”, the “polyreactivity (PSR sort gate)” value is reported as “low polyreactivity”. With “QDQLVESGGGLVQAGGSLRLSCAASGSIFPDYVMGWYRQAPGKERELVAAISASGGSTYYADSVKGRFTISRDNEKNTVYLKMNSLKPEDTAVYYCNASPKTYLRRKYDYWGQGTQVTVSS” the “polyreactivity (PSR sort gate)” value was “high polyreactivity”. With “QDQLVESGGGLVQAGGSLRLSCAASGSIFPSNTMGWYRQAPGKERELVAAITGSGGSTYYADSVKGRFTISRDNAKNTVYLQMNSLKPEDTAVYYCAARYRVDGVKYGYWGQGTQVTVSS” the “polyreactivity (PSR sort gate)” value was “high polyreactivity”. For “QDQLVESGGGLVQAGGSLRLSCAASGSIFRVYAMGRYRQAPGKERELVAAISSIVGSTYYADSVKGRFTISRDNAKNSVYLQMNSLKPEDTAVYDCNKEGTWPRTGSEYDSWGQGSQVTVSS”, the “polyreactivity (PSR sort gate)” value was “low polyreactivity”. For “QDQLVESGGGLVQAGGSLRLSCAASGSIFSFYAMGWYSQATGKERELVAGIRWRGGTSTFYADSVKGRFTISRDNEKNTVYLQMNSLNPEDTAVYYCADKRRTGGNGYWGQGTQVTVSS”, the “polyreactivity (PSR sort gate)” value was “high polyreactivity”. With “QDQLVESGGGLVQAGGSLRLSCAASGSIFTYNAMGWYRPAPGKERELVAAINTSGSTNYADSVKGRFTISRDNAKNTVYLQKYSLKPEDTAVYYCAAGIVVTVYDYWRQGTQVTVSS” the “polyreactivity (PSR sort gate)” value was “low polyreactivity”. For “QDQLVESGGGLVQAGGSLRLSCAASGSIFVNNAMGWYRQAPGKERELVAAISRSGGNTYYADSVKGRFTISRDNAKNTVYLQMNSLKPEDTAVYYCAADFRGRYGYWGQGTQVTVSS”, the “polyreactivity (PSR sort gate)” value was “high polyreactivity”. With “QDQLVESGGGLVQAGGSLRLSCAASGSIFWYYGMGWYRQAPGKERELVAAISSGGSTNYADSVKGRFAISRDNAKNTVYLQMNSLKPEDTAVYYCAVRFTFPRYPASYSRYYYWGQGTQVTVSS” the “polyreactivity (PSR sort gate)” value was “high polyreactivity”. For “QDQLVESGGGLVQAGGSLRLSCAASGSIFYAYTMGWYRQAPGKEMELVASITKSGGSTYYADSVKGRFTISRDNAKNTVYLQMNSLKPEDTAVYYCAAVVGRNRTRSYGYWGQGTQVTVSS”, the “polyreactivity (PSR sort gate)” value was “high polyreactivity”. In the case of “QDQLVESGGGLVQAGGSLRLSCAASGSIFYRNAMGWYIQATGKERELVAAISSDGSTNYADSVKGRFTISRDNAKNTVYLQMNSLKPEDTAVYFCAAPWTQILDYWGQGTQVTVSS”, the “polyreactivity (PSR sort gate)” value is reported as “low polyreactivity”. In the case of “QDQLVESGGGLVQAGGSLRLSCAASGSLFDLYAMGWYRQAPGKERELVAAISWSDSRTYYADSVKGRFTISRDNAKNTVYLQMNSLKPEDTAVYYCAADYRYPDNYGGYDYWGQGTQVTVSS”, the “polyreactivity (PSR sort gate)” value is reported as “low polyreactivity”. In the case of “QDQLVESGGGLVQAGGSLRLSCAASGSTFETNAMGWYRQAPGKERELVAAISGRGGSTYYADSVKGRFTFSRDNAKNTVYLQMNSLKPEDTAVFYCDATYGTGRRSKYGYCGQGTQVTVSS”, the “polyreactivity (PSR sort gate)” value is reported as “high polyreactivity”. With “QDQLVESGGGLVQAGGSLRLSCAASGSTFGDYTMGSYRQAPGKEREFVAAITVSVGSTYFADSVKGRFTISRDTAKNTVYLQMNSVKPEDTAFYYCNTDRDPYYHYFDGLYYYWGQGTQVTVSS” the “polyreactivity (PSR sort gate)” value was “low polyreactivity”. For “QDQLVESGGGLVQAGGSLRLSCAASGSTFGFNAMGWDRQAPGKERELVAAITWSGGSTYYADSVKGRFTISRDNAKNTVYLQMNSLKPEDTAVYYCARETYGDYVHYDYWGQGTQVTLSS”, the “polyreactivity (PSR sort gate)” value was “low polyreactivity”. In the case of “QDQLVESGGGLVQAGGSLRLSCAASGSTFKKYALGWYRQAPGKERELVAAITGSGGRTYYADSVKGRFTISRDNAKNTVYLQMNSLKPEDTAVYYCAARRYLSGGYYYCGQGTQVTVSS”, the “polyreactivity (PSR sort gate)” value is reported as “high polyreactivity”.
